From IntAct's records for PubMed 25281559

B1: Casein kinase I homolog HRR25 (Saccharomyces cerevisiae), P29295 (parent)
chain: MDLRVGRKFRIGRKIGSGSFGDIYHGTNLISGEEVAIKLESIRSRHPQLDYESRVYRYLSGGVGIPFIRWFGREGEYNAMVIDLLGPSLEDLFNYCHRRFSFKTVIMLALQMFCRIQYIHGRSFIHRDIKPDNFLMGVGRRGSTVHVIDFGLSKKYRDFNTHRHIPYRENKSLTGTARYASVNTHLGIEQSRRDDLESLGYVLIYFCKGSLPWQGLKATTKKQKYDRIMEKKLNVSVETLCSGLPLEFQEYMAYCKNLKFDEKPDYLFLARLFKDLSIKLEYHNDHLFDWTMLRYTKAMVEKQRDLLIEKGDLNANSNAASASNSTDNKSETFNKIKLLAMKKFPTHFHYYKNEDKHNPSPEEIKQQTILNNNAASSLPEELLNALDKGMENLRQQQPQQQVQSSQPQPQPQQLQQQPNGQRPNYYPEPLLQQQQRDSQEQQQQVPMATTRATQYPPQINSNNFNTNQASVPPQMRSNPQQPPQDKPAGQSIWL
partner: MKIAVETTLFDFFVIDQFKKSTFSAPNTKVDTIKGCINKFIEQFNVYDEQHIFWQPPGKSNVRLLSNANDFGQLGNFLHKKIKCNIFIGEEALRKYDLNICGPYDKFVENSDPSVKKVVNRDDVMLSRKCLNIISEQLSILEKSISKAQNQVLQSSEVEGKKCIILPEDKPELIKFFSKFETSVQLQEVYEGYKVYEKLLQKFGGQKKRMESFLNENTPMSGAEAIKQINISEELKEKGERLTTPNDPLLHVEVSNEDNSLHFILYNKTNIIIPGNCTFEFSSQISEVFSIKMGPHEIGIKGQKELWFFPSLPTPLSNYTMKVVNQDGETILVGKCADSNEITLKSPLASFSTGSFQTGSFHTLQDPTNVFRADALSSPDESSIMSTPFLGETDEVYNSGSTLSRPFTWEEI

Variants of: B1
Settings: with atg34_yeast ATG34, Q12292

Question: For K38A, which “effect of a mutation on the interaction” value is on record?
Answer: disrupting interaction
